From patent US9180187B2, “Medicament for treating and/or preventing cancer” (TORAY INDUSTRIES, INC., priority 2010, dated 2015)

Assays:
Assay type in all cases: cell-based, human
[1] = test system: U373; assay: ADCC activity, chromium-51 release; conditions: glioma cell line
Protocol: (§1) The above-selected anti-CAPRIN-1 monoclonal antibodies #1 to #11 were evaluated for their cytotoxic activities against cancer cells (ADCC activity). Hybridomas producing the monoclonal antibodies #1 to #11 were each cultured using hybridoma SFM medium (Invitrogen). The thus obtained supernatant was purified using Hitrap ProteinA Sepharose FF (GE HealthCare), replaced with PBS(−), and then filtered through 0.22 μm filter (Millipore). The obtained filtrates were used as antibodies for assay. The human breast cancer cell line MDA-MB-157 (10^6 cells) was collected in a 50-ml centrifuge tube, to which 100 μCi chromium(Cr)-51 was then added, and incubated at 37° C. for 2 hours. Subsequently, the cells were washed 3 times with RPMI1640 medium containing 10% FBS, and then dispensed into each well of a 96-well V-bottom plate at 10^3 cells per well. The thus obtained cells are used as target cell. The above purified antibodies (1 μg each) were added to the cells. Separately, mouse lymphocytes separated from the mouse spleen were further added (2×10^5 cells) and then cultured under conditions of 37° C. and 5% CO2 for 4 hours. After culture, the amount of chromium(Cr)-51 released from cytotoxically impaired tumor cells in a culture supernatant was measured, so that the ADCC activity of each anti-CAPRIN-1 antibody against cancer cells was calculated. […] On the other hand, similar procedures were performed using the monoclonal antibodies (which were prepared in Example 2) reactive with the CAPRIN-1 protein itself, but not reactive with the surface of cancer cells, no cytotoxic activity was observed (see FIG. 1). […] Similarly, the anti-CAPRIN-1 antibodies were examined for ADCC activity against other human cancer cell lines including glioma cell lines (T98G and U373), lung cancer cell lines (A549 and QG56), renal cancer cell lines (Caki-1 and ACHN), a uterine cervix cancer cell line (SW756), a bladder cancer cell line (T24), an esophageal cancer cell line (KYSE180), gastric cancer cell lines (MNK28 and MNK45), a colorectal cancer cell line (SW480), a leukemia cell line (AML5), and a lymphoma cell line (Ramos).

[2] = test system: SW480; assay: ADCC activity, chromium-51 release; conditions: colorectal cancer cell line
Protocol: as §1

[3] = test system: Ramos; assay: ADCC activity, chromium-51 release; conditions: lymphoma cell line
Protocol: as §1

[4] = test system: MNK28; assay: ADCC activity, chromium-51 release; conditions: gastric cancer cell line
Protocol: as §1

[5] = test system: SW756; assay: ADCC activity, chromium-51 release; conditions: uterine cervix cancer cell line
Protocol: as §1

[6] = test system: ACHN; assay: ADCC activity, chromium-51 release; conditions: renal cancer cell line
Protocol: as §1

[7] = test system: T24; assay: ADCC activity, chromium-51 release; conditions: bladder cancer cell line
Protocol: as §1

[8] = test system: QG56; assay: ADCC activity, chromium-51 release; conditions: lung cancer cell line
Protocol: as §1

[9] = test system: T98G; assay: ADCC activity, chromium-51 release; conditions: glioma cell line
Protocol: as §1

[10] = test system: AML5; assay: ADCC activity, chromium-51 release; conditions: leukemia cell line
Protocol: as §1

[11] = test system: MNK45; assay: ADCC activity, chromium-51 release; conditions: gastric cancer cell line
Protocol: as §1

[12] = test system: KYSE180; assay: ADCC activity, chromium-51 release; conditions: esophageal cancer cell line
Protocol: as §1

[13] = test system: A549; assay: ADCC activity, chromium-51 release; conditions: lung cancer cell line
Protocol: as §1

[14] = test system: Caki-1; assay: ADCC activity, chromium-51 release; conditions: renal cancer cell line
Protocol: as §1

[15] = test system: CAPRIN-1 protein; assay: Flow cytometry: expression of CAPRIN-1 protein on the cell surface of MCF-7 treated with antitumor agents; conditions: 1 μg antibody
Protocol: The cancer cell line MCF-7 was treated with each antitumor agent at a 50% inhibitory concentration which was calculated in (1) above, and the expression behavior of a CAPRIN-1 protein on the cell surface was examined.
The expression behavior of the CAPRIN-1 protein on the surface of the above-treated MCF-7 human breast cancer cell was examined. The cell was prepared to a concentration of 1×10^5 cells/ml, and then cultured on a 6-well plate under conditions of 37° C. and 5% CO2 for 1 day. Next, the cell was treated with antitumor agents at the 50% inhibitory concentration calculated in (1) above, or with PBS(−) as a control, and then cultured under conditions of 37° C. and 5% CO2 for 2 days. […] After washing with PBS, fluorescence intensity was measured using a FACS caliber (Becton, Dickinson and Company). […] As a result, no significant difference in fluorescence intensity was observed regardless of treatment with an antitumor agent. Specifically, the fluorescence intensity obtained in the case of adding the anti-CAPRIN-1 antibody to MCF-7 not treated with any antitumor agent indicated 32% higher enhancement when compared with that in the case of adding the control antibody. […] Here, the percentage of enhancement in fluorescence intensity was represented by the percentage of increase in mean fluorescence intensity (MFI level) in each cell and calculated by the following formula. […]

B1: monoclonal antibody #9: mouse anti-CAPRIN-1 monoclonal antibody; heavy chain variable region SEQ ID NO: 103, light chain variable region SEQ ID NO: 107 (antibody, listed as Mus musculus, V domains shown)
VH: PRASLGVSETLLCTSGFTFTDYYMSWVRQPPGKALEWLGFIRNKANGYTTEYSASVKGRFTISRDNSQSILYLQMNTLRAEDSATYYCARANWAFDYWGQGTTVTVSSK
VL: SGDRVSLSCRASQSISNYLHWYQQKSHESPRLLIKYASQSISGIPSRFSGSGSGTDFTLSINSVETEDFGMYFCQQSNSWPYTFGGGTKLEIKQ
ADCC activity against U373 [1]: ≥ 16%
ADCC activity against SW480 [2]: ≥ 17%
ADCC activity against Ramos [3]: ≥ 10%
ADCC activity against MNK28 [4]: ≥ 15%
ADCC activity against SW756 [5]: ≥ 16%
ADCC activity against ACHN [6]: ≥ 14%
ADCC activity against T24 [7]: ≥ 18%
ADCC activity against QG56 [8]: ≥ 20%
ADCC activity against T98G [9]: ≥ 12%
ADCC activity against AML5 [10]: ≥ 10%
ADCC activity against MNK45 [11]: ≥ 10%
ADCC activity against KYSE180 [12]: ≥ 22%
ADCC activity against A549 [13]: ≥ 24%
ADCC activity against Caki-L [14]: ≥ 23%
percentage of enhancement in fluorescence intensity versus control antibody ([15]; MCF-7 not treated with any antitumor agent): 32%
percentage of enhancement in fluorescence intensity versus control antibody ([15]; MCF-7 treated with the antitumor agent at 50% inhibitory concentration for 2 days): 32%
